Tested on: Escherichia coli TOP10
Assay: shrunken log2 fold change of peptide-encoding DNA abundance (4.5 h post-induction vs induction); higher = less antimicrobial activity (less host growth inhibition)
Conditions: time post-induction: 4.5 h; library: site-saturation at positions 5, 18, 19, 20
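Also: peptides expressed intracellularly from a pBAD plasmid library in pooled LB shake-flask culture, induced with 0.3% L-arabinose, DNA abundance read by NGS, three biological replicates, DESeq2 with apeglm shrinkage.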

Sequence: RRIRQRPPRLPRPRPRPITNPRP
- shrunken log2 fold change: -0.158

Sequence: RRIRRRPPRLPRPRPRPFHDPRP
- shrunken log2 fold change: -0.307

Sequence: RRIRVRPPRLPRPRPRPAYTPRP
- shrunken log2 fold change: -0.286

Sequence: RRIRMRPPRLPRPRPRPSSGPRP
- shrunken log2 fold change: 0.0493

Sequence: RRIRNRPPRLPRPRPRPNVIPRP
- shrunken log2 fold change: -0.261

Sequence: RRIRFRPPRLPRPRPRPYNPPRP
- shrunken log2 fold change: -0.237

Sequence: RRIRARPPRLPRPRPRPCFAPRP
- shrunken log2 fold change: 0.61

Sequence: RRIRGRPPRLPRPRPRPMFTPRP
- shrunken log2 fold change: 0.522

Sequence: RRIRERPPRLPRPRPRPCVYPRP
- shrunken log2 fold change: -0.33

Sequence: RRIRPRPPRLPRPRPRPDDSPRP
- shrunken log2 fold change: 0.0427

Sequence: RRIRFRPPRLPRPRPRPRWNPRP
- shrunken log2 fold change: 0.00853

Sequence: RRIRLRPPRLPRPRPRPTHLPRP
- shrunken log2 fold change: -0.12

Sequence: RRIRQRPPRLPRPRPRPMKLPRP
- shrunken log2 fold change: 0.00355

Sequence: RRIRTRPPRLPRPRPRPNCGPRP
- shrunken log2 fold change: 0.0396

Sequence: RRIRERPPRLPRPRPRPRVCPRP
- shrunken log2 fold change: 0.0408

Sequence: RRIRPRPPRLPRPRPRPHSLPRP
- shrunken log2 fold change: -0.0621

Sequence: RRIRVRPPRLPRPRPRPVHSPRP
- shrunken log2 fold change: 0.0275

Sequence: RRIRDRPPRLPRPRPRPMTPPRP
- shrunken log2 fold change: -0.0805

Sequence: RRIRKRPPRLPRPRPRPCMNPRP
- shrunken log2 fold change: -0.279

Sequence: RRIRVRPPRLPRPRPRPENIPRP
- shrunken log2 fold change: -0.125

Sequence: RRIRKRPPRLPRPRPRPFSLPRP
- shrunken log2 fold change: -0.189

Sequence: RRIRERPPRLPRPRPRPHQFPRP
- shrunken log2 fold change: 0.00386

Sequence: RRIRWRPPRLPRPRPRPNWLPRP
- shrunken log2 fold change: 0.0255

Sequence: RRIRFRPPRLPRPRPRPVILPRP
- shrunken log2 fold change: -1

Sequence: RRIRQRPPRLPRPRPRPFFHPRP
- shrunken log2 fold change: -0.532

Sequence: RRIRRRPPRLPRPRPRPMIYPRP
- shrunken log2 fold change: -0.305

Sequence: RRIRGRPPRLPRPRPRPASYPRP
- shrunken log2 fold change: -0.14

Sequence: RRIRDRPPRLPRPRPRPWFDPRP
- shrunken log2 fold change: -0.15

Sequence: RRIRGRPPRLPRPRPRPCKCPRP
- shrunken log2 fold change: -0.082

Sequence: RRIRPRPPRLPRPRPRPKHCPRP
- shrunken log2 fold change: -0.0919

Sequence: RRIRDRPPRLPRPRPRPYITPRP
- shrunken log2 fold change: -0.879

Sequence: RRIRLRPPRLPRPRPRPVKVPRP
- shrunken log2 fold change: -0.0103

Sequence: RRIRLRPPRLPRPRPRPWYSPRP
- shrunken log2 fold change: -0.103

Sequence: RRIRTRPPRLPRPRPRPHMEPRP
- shrunken log2 fold change: 0.0103

Sequence: RRIRCRPPRLPRPRPRPDTCPRP
- shrunken log2 fold change: -0.0965

Sequence: RRIRVRPPRLPRPRPRPFWRPRP
- shrunken log2 fold change: 0.0595

Sequence: RRIRARPPRLPRPRPRPQLGPRP
- shrunken log2 fold change: -0.0732

Sequence: RRIRDRPPRLPRPRPRPYEIPRP
- shrunken log2 fold change: -0.0176

Sequence: RRIRMRPPRLPRPRPRPQQLPRP
- shrunken log2 fold change: -0.0103

Sequence: RRIRVRPPRLPRPRPRPNSSPRP
- shrunken log2 fold change: -0.0634

Sequence: RRIRERPPRLPRPRPRPWETPRP
- shrunken log2 fold change: 0.11

Sequence: RRIRKRPPRLPRPRPRPTCDPRP
- shrunken log2 fold change: -0.00872

Sequence: RRIRIRPPRLPRPRPRPFCRPRP
- shrunken log2 fold change: 0.087

Sequence: RRIRIRPPRLPRPRPRPHHLPRP
- shrunken log2 fold change: -0.221

Sequence: RRIRERPPRLPRPRPRPCHIPRP
- shrunken log2 fold change: -0.439

Sequence: RRIRTRPPRLPRPRPRPDDSPRP
- shrunken log2 fold change: -1.36

Sequence: RRIRYRPPRLPRPRPRPVIVPRP
- shrunken log2 fold change: -0.877

Sequence: RRIRTRPPRLPRPRPRPVQPPRP
- shrunken log2 fold change: 0.238

Sequence: RRIRNRPPRLPRPRPRPAVMPRP
- shrunken log2 fold change: -0.0474

Sequence: RRIRTRPPRLPRPRPRPSPDPRP
- shrunken log2 fold change: -0.331

Sequence: RRIRIRPPRLPRPRPRPPKNPRP
- shrunken log2 fold change: -0.159

Sequence: RRIRWRPPRLPRPRPRPQFKPRP
- shrunken log2 fold change: -0.0678

Sequence: RRIRCRPPRLPRPRPRPGDFPRP
- shrunken log2 fold change: -0.0027

Sequence: RRIRGRPPRLPRPRPRPDYSPRP
- shrunken log2 fold change: -0.0453

Sequence: RRIRLRPPRLPRPRPRPTQLPRP
- shrunken log2 fold change: 0.221

Sequence: RRIRHRPPRLPRPRPRPDAKPRP
- shrunken log2 fold change: -0.0555

Sequence: RRIRRRPPRLPRPRPRPPFWPRP
- shrunken log2 fold change: 0.959

Sequence: RRIRVRPPRLPRPRPRPCEPPRP
- shrunken log2 fold change: 0.137

Sequence: RRIRSRPPRLPRPRPRPTHGPRP
- shrunken log2 fold change: 0.28

Sequence: RRIRNRPPRLPRPRPRPAQDPRP
- shrunken log2 fold change: 0.288

Sequence: RRIRLRPPRLPRPRPRPVPSPRP
- shrunken log2 fold change: 0.157

Sequence: RRIRKRPPRLPRPRPRPQLDPRP
- shrunken log2 fold change: 0.207

Sequence: RRIRVRPPRLPRPRPRPHSMPRP
- shrunken log2 fold change: -0.333

Sequence: RRIRPRPPRLPRPRPRPAFHPRP
- shrunken log2 fold change: 0.189

Sequence: RRIRFRPPRLPRPRPRPRRGPRP
- shrunken log2 fold change: 0.435

Sequence: RRIRERPPRLPRPRPRPQSCPRP
- shrunken log2 fold change: 0.00299

Sequence: RRIRARPPRLPRPRPRPWIAPRP
- shrunken log2 fold change: -0.0071

Sequence: RRIRARPPRLPRPRPRPMNRPRP
- shrunken log2 fold change: -0.107

Sequence: RRIRRRPPRLPRPRPRPRQPPRP
- shrunken log2 fold change: 0.997

Sequence: RRIRERPPRLPRPRPRPLTYPRP
- shrunken log2 fold change: -0.188

Sequence: RRIRTRPPRLPRPRPRPTVLPRP
- shrunken log2 fold change: -0.0554

Sequence: RRIRPRPPRLPRPRPRPTTCPRP
- shrunken log2 fold change: 0.262

Sequence: RRIRSRPPRLPRPRPRPNHNPRP
- shrunken log2 fold change: -0.784

Sequence: RRIRERPPRLPRPRPRPLYCPRP
- shrunken log2 fold change: -0.444

Sequence: RRIRPRPPRLPRPRPRPPCVPRP
- shrunken log2 fold change: 0.128

Sequence: RRIRQRPPRLPRPRPRPGWQPRP
- shrunken log2 fold change: -0.00211

Sequence: RRIRFRPPRLPRPRPRPADAPRP
- shrunken log2 fold change: 0.147

Sequence: RRIRDRPPRLPRPRPRPLCDPRP
- shrunken log2 fold change: 0.287

Sequence: RRIRSRPPRLPRPRPRPRTDPRP
- shrunken log2 fold change: 0.0755

Sequence: RRIRLRPPRLPRPRPRPVDHPRP
- shrunken log2 fold change: -0.0221

Sequence: RRIRVRPPRLPRPRPRPSAAPRP
- shrunken log2 fold change: 0.298

Sequence: RRIRERPPRLPRPRPRPPDRPRP
- shrunken log2 fold change: -0.00621

Sequence: RRIRRRPPRLPRPRPRPRNKPRP
- shrunken log2 fold change: 0.0888

Sequence: RRIRFRPPRLPRPRPRPNVQPRP
- shrunken log2 fold change: -0.237

Sequence: RRIRPRPPRLPRPRPRPTIWPRP
- shrunken log2 fold change: 0.349

Sequence: RRIRYRPPRLPRPRPRPFSFPRP
- shrunken log2 fold change: -0.35

Sequence: RRIRYRPPRLPRPRPRPTNGPRP
- shrunken log2 fold change: -0.126

Sequence: RRIRLRPPRLPRPRPRPGMWPRP
- shrunken log2 fold change: 0.164

Sequence: RRIRNRPPRLPRPRPRPKSMPRP
- shrunken log2 fold change: 0.0478

Sequence: RRIRKRPPRLPRPRPRPQAAPRP
- shrunken log2 fold change: 0.451

Sequence: RRIRERPPRLPRPRPRPAVKPRP
- shrunken log2 fold change: -0.0221

Sequence: RRIRTRPPRLPRPRPRPDINPRP
- shrunken log2 fold change: -0.151

Sequence: RRIRFRPPRLPRPRPRPHQAPRP
- shrunken log2 fold change: -0.0233

Sequence: RRIRIRPPRLPRPRPRPNYTPRP
- shrunken log2 fold change: -0.516

Sequence: RRIRRRPPRLPRPRPRPHAQPRP
- shrunken log2 fold change: 0.0722

Sequence: RRIRIRPPRLPRPRPRPFYWPRP
- shrunken log2 fold change: -0.12

Sequence: RRIRIRPPRLPRPRPRPKTEPRP
- shrunken log2 fold change: -0.413

Sequence: RRIRHRPPRLPRPRPRPKEIPRP
- shrunken log2 fold change: -0.00142

Sequence: RRIRSRPPRLPRPRPRPYEFPRP
- shrunken log2 fold change: -0.438

Sequence: RRIRNRPPRLPRPRPRPCDIPRP
- shrunken log2 fold change: -0.0262

Sequence: RRIRERPPRLPRPRPRPWRRPRP
- shrunken log2 fold change: 0.115

Sequence: RRIRARPPRLPRPRPRPSSDPRP
- shrunken log2 fold change: 0.301

Sequence: RRIRRRPPRLPRPRPRPVIKPRP
- shrunken log2 fold change: -0.121

Sequence: RRIRLRPPRLPRPRPRPPKEPRP
- shrunken log2 fold change: 0.00696

Sequence: RRIRWRPPRLPRPRPRPLQGPRP
- shrunken log2 fold change: -0.21

Sequence: RRIRWRPPRLPRPRPRPQVHPRP
- shrunken log2 fold change: 0.0992

Sequence: RRIRVRPPRLPRPRPRPLGGPRP
- shrunken log2 fold change: 0.27

Sequence: RRIRCRPPRLPRPRPRPRDEPRP
- shrunken log2 fold change: 0.342

Sequence: RRIRIRPPRLPRPRPRPINMPRP
- shrunken log2 fold change: -0.956

Sequence: RRIRDRPPRLPRPRPRPLAYPRP
- shrunken log2 fold change: 0.0112

Sequence: RRIRMRPPRLPRPRPRPGKCPRP
- shrunken log2 fold change: -0.0233

Sequence: RRIRTRPPRLPRPRPRPIFYPRP
- shrunken log2 fold change: -0.315

Sequence: RRIRIRPPRLPRPRPRPHGKPRP
- shrunken log2 fold change: -0.326

Sequence: RRIRKRPPRLPRPRPRPLQDPRP
- shrunken log2 fold change: 0.485

Sequence: RRIRMRPPRLPRPRPRPPWFPRP
- shrunken log2 fold change: 0.568

Sequence: RRIRNRPPRLPRPRPRPERCPRP
- shrunken log2 fold change: 0.0334

Sequence: RRIRIRPPRLPRPRPRPMDWPRP
- shrunken log2 fold change: 0.0118

Sequence: RRIRPRPPRLPRPRPRPNVEPRP
- shrunken log2 fold change: 0.0775

Sequence: RRIRTRPPRLPRPRPRPGHKPRP
- shrunken log2 fold change: -0.106

Sequence: RRIRMRPPRLPRPRPRPIYEPRP
- shrunken log2 fold change: -0.0231

Sequence: RRIRNRPPRLPRPRPRPPRFPRP
- shrunken log2 fold change: 0.441

Sequence: RRIRSRPPRLPRPRPRPWQSPRP
- shrunken log2 fold change: 0.143

Sequence: RRIRKRPPRLPRPRPRPWGLPRP
- shrunken log2 fold change: -0.22

Sequence: RRIRRRPPRLPRPRPRPVKTPRP
- shrunken log2 fold change: 0.05

Sequence: RRIRIRPPRLPRPRPRPPHSPRP
- shrunken log2 fold change: -0.164

From the supplement of paper PMC9112550, “Optimization of the antimicrobial peptide Bac7 by deep mutational scanning” (BMC Biology, 2022)
